T1: PSMGFR peptide (Primary Sequence of the MUC1 Growth Factor Receptor)
T1 construct: synthetic peptide immobilised on ELISA plates; also called MUC1* peptide; MUC1* extra cellular domain peptide
T1 peptide: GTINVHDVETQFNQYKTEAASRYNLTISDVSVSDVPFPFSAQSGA

T2: N-10 peptide (PSMGFR minus 10 amino acids from the N-terminus)
T2 construct: also called N-10 PSMGFR; PSMGFR N-10
T2 peptide: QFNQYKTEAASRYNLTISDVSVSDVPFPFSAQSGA

T3: C-10 peptide (PSMGFR minus 10 amino acids from the C-terminus)
T3 construct: also called C-10 PSMGFR; PSMGFR C-10
T3 peptide: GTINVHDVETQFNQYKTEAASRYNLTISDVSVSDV

T4: N+20/C-27 peptide (20 amino acids added onto the N-terminus and 27 deleted from the C-terminus of PSMGFR)
T4 peptide: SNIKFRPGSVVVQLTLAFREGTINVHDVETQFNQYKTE

T5: N+9/C-9 peptide (9 amino acids added onto the N-terminus and 9 deleted from the C-terminus of PSMGFR)
T5 peptide: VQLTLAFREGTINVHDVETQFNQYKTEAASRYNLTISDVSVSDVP


Key:
[1] = molecular target: T1, PSMGFR peptide (Primary Sequence of the …); experiment: ELISA (FIG. 201A)
[2] = molecular target: T2, N-10 peptide (PSMGFR minus 10 amino …); experiment: ELISA (FIG. 201B)
Experimental: (§1) FIG. 201A-201C show graphs of ELISA assays to determine the binding of another set of antibodies generated by immunizing animals with the PSMGFR peptide. […] F3, B12, B2, B7, B9, 8C7F3 and H11 all bound to the PSMGFR peptide and to the N−10 peptide.
(§2) This same ELISA assay was performed on the antibodies of the invention (FIG. 64-66 and FIG. 201). Note that only 20A10 exactly matches the binding profile of MNC2 and MNE6. 25E6, 28F9 and 18G12 are all able to bind to the N−10 peptide. 18B4 is the only antibody raised against the PSMGFR peptide that requires the 10 most N-terminal amino acids of the peptide. The color of the bars for each antibody in the ELISA graph are color coded to match the deductive cognate sequence, or a portion thereof, of that antibody. In addition, another set of antibodies was assayed by ELISA (FIG. 201). Of this set, B12, B2, B7, B9, 8C7F3, and H11 bound to the PSMGFR peptide, bound to the N−10 peptide, but not to the C−10 peptide (FIG. 201). Although these antibodies were raised against the N+20/C−27 peptide, all but one, 45C11, still bind to the PSMGFR peptide, albeit at the N-terminal portion of PSMGFR.

[3] = molecular target: T3, C-10 peptide (PSMGFR minus 10 amino …); experiment: ELISA (FIG. 201C)
Experimental: as §1, §2

[4] = molecular target: T1, PSMGFR peptide (Primary Sequence of the …); experiment: ELISA
[5] = molecular target: T2, N-10 peptide (PSMGFR minus 10 amino …); experiment: ELISA
[6] = molecular target: T3, C-10 peptide (PSMGFR minus 10 amino …); experiment: ELISA
[7] = molecular target: T4, N+20/C-27 peptide (20 amino acids added …); experiment: ELISA
[8] = molecular target: T1, PSMGFR peptide (Primary Sequence of the …); experiment: ELISA (FIG. 65)
[9] = molecular target: T2, N-10 peptide (PSMGFR minus 10 amino …); experiment: ELISA (FIG. 64)
[10] = molecular target: T5, N+9/C-9 peptide (9 amino acids added …); experiment: ELISA (FIG. 64A)

Row | Binder | binding result [3] | binding result [4] | binding result [5] | binding result [6] | further results
1 | B2 mouse monoclonal antibody (antibody, V domains shown, raised against PSMGFR; built from framework and CDR entries) VH: EVVLVESGGGLVEPGGSLKLSCVASGFAFSTFAMSWIRQTPEKRLEWVAAISNGGGYTYYPDTLKGRFSISRDNAKNTLYLQMSSLRSEDTAVYYCARRYYDLYFDLWGRGTSLIVSS VL: DILMTQTPLSLPVSLGDQASISCRSSQNIVHSNGNTYLEWYLQKPGQSPKLLIYKVSNRFSGVPDRFSGSGSGTDFTLKISRVEAEDLGVYYCFQDSHVPLTFGAGTRLELK | no binding |  |  |  | binding result [1]: binds; binding result [2]: binds
2 | B7 mouse monoclonal antibody (antibody, V domains shown, raised against PSMGFR; built from framework and CDR entries) VH: EVQVVESGGDLVKPGGSLKLSCAASGFTFSRYGMSWVRQTPDKRLEWVATISSGGTYIYYPDSVKGRFTISRDNAKNTLYLQMSSLKSEDTAMYYCARDNYGSSYDYAMDYWGQGTSVTVSS VL: DVLMTQTPLSLPVSLGDQASISCRSSQTIVHSNGNTYLEWYLQKPGQSPKLLIYKVSNRFSGVPDRFSGSGSGTDFTLKISRVEAEDLGVYYCFQDSHVPLTFGAGTKLELK | no binding |  |  |  | 
3 | 5C6F3 mouse monoclonal antibody (antibody, V domains shown, raised against PSMGFR; also called MN-5C6F3; anti-PSMGFR antibody 5C6F3) VH: EVMLVESGGGLVKPGGSLKLSCAASGFTFSTYAMSWVRQTPEKRLEWVAAISNGGGYTYYPDSLKGRFTISRDNAKNTLYLQMSSLRSEDTATYYCARRYYDHYFDYWGQGTALTVSS VL: DVLMTQTPLSLPVSLGDQASISCRSSQTIVHSNGNTYLEWYLQKPGQSPKLLIYKVSNRFSGVPDRFSGSGSGTDFTLKISRVEAEDLGVYYCFQDSHVPLTFGAGTKLELK |  | binds | binds |  | 
4 | 31A1 mouse monoclonal antibody (antibody, V domains shown, raised against N+20/C-27; also called N+20/C-27 antibody 31A1) VH: QVQLQQSGAELAKPGASVKMSCKASGYTFTSYWMHWVKQRPGQGLEWIGYINPSTGYTEYNQKFKDKATLTADKSSSTAYMQLSSLTSEDSAVYYCARAYIDYWGQGTTLTVSS VL: DVLMTQTPLSLPVSLGDQASFSCRSSQSIVHSNGNTYLEWYLQKPGQSPKLLIYKVSNRFSGVPDRFSGSGSGTDFTLKINRVEAEDLGVYYCFQVSHFPWTFGGGTKLEIK |  |  | no binding | binds | binding result [7]: binds; binding result [8]: binds
5 | H11 mouse monoclonal antibody (antibody, V domains shown, raised against PSMGFR; built from framework and CDR entries) VH: EVVLVESGGGLVEPGGSLKLSCVASGFAFSTFAMSWIRQTPEKRLEWVAAISNGGGYTYYPDTLKGRFTISRDNAKNTLYLQMSSLRSEDTAVYYCARRYYDLYFDLWGQGTSLIVSS VL: DILMTQTPLSLPVSLGDQASISCRSSQNIVHSNGNTYLEWYLQKPGQSPKLLIYKVSNRFSGVPDRFSGSGSGTDFTLKISRVEAEDLGVYYCFQDSHVPLTFGAGTRLELK | no binding |  |  |  | 
6 | 25E6 mouse monoclonal antibody (antibody, V domains shown, raised against PSMGFR; also called MN-25E6; anti-PSMGFR antibody 25E6) VH: EVQLVESGGDLVKPGGSLKLSCAASGFTFSSYGMSWVRQTPDKRLEWVATISNGGRHTFYPDSVKGRFTISRDNAKNTLYLQMSSLKSEDTAMYLCVRQTGTEGWFAYWGQGTLVTVSA VL: not shown |  | binds |  |  | binding result [9]: binds; binding result [10]: binds
7 | 28F9 mouse monoclonal antibody (antibody, V domains shown, raised against PSMGFR; also called MN-28F9; anti-PSMGFR antibody 28F9) VH: QVQLQQPGAELVQPGASVKLSCKASGYTFTGYFLYWVKQRPGHGLEWIGGIHPSNGDTDFNEKFKNKATLTVDISSSTAYMQLSSLTSEDSAVYYCTLLIGVYWGQGTTLTVSS VL: not shown |  | binds |  | binds | binding result [9]: binds; binding result [10]: binds
8 | 18G12 mouse monoclonal antibody (antibody, V domains shown, raised against PSMGFR; also called MN-18G12; anti-PSMGFR antibody 18G12) VH: QVQLQQSGAELVKPGASVKLSCKASGYTFTGYFLYWVKQRPGQGLEWIGGINPDNGGIDFNEKFRNKATLTVDKSSSTAYMQLSSLTSEDSAVYYCTLLIGNYWGQGTTLTVSS VL: not shown |  | binds |  | binds | binding result [9]: binds; binding result [10]: binds
9 | B9 mouse monoclonal antibody (antibody, V domains shown, raised against PSMGFR; built from framework and CDR entries) VH: EVQVVESGGDLVKPGGSLKLSCAASGFTFSRYGMSWVRQTPDKRLEWVATISSGGTYIYYPDSVKGRFTISRDNAKNTLYLQMSSLKSEDTAMYYCARDNYGSSYDYAMDYWGQGTSVTVSS VL: QIVLTQSPAIMSASPGEEVTLTCSASSSVSYMHWFQQRPGTSPKLWIYTTSNLASGVPARFSGSGSGTSYSLTISRMEAEDAATYYCQQRSSYPFTFGSGTKLEIK | no binding |  |  |  | binding result [1]: binds; binding result [2]: binds
10 | B12 mouse monoclonal antibody (antibody, V domains shown, raised against PSMGFR; built from framework and CDR entries) VH: QAQLKESGPGLVAPSQSLSITCTVSGFSLTSYGVHWVRQPPGKGLEWLGVIWPGGSTNYNSTLMSRMRIIKDNSKSQVFLKMNSLQIDDTAMYYCARDRTPRVGAWFAYWGQGTLVTVSA VL: IIVLTQSPASLAVSLGQRATISCRASESVATYGNNFMQWYQQKPGQPPKLLIYLASTLDSGVPARFSGSGSRTDFTLTIDPVEADDAATYYCQQNNEDPPTFGGGTKLEIK | no binding |  |  |  | binding result [1]: binds; binding result [2]: binds
11 | 8C7F3 mouse monoclonal antibody (antibody, V domains shown, raised against PSMGFR; built from framework and CDR entries) VH: EVMLVESGGGLVKPGGSLKLSCAASGFTFSTYAMSWVRQTPEKRLEWVAAISNGGGYTYYPDSLKGRFTISRDNAKNTLYLQMSSLRSEDTATYYCARRYYDHYFDYWGQGTALTVSS VL: IIVLTQSPASLAVSLGQRATISCRASESVATYGNNFMQWYQQKPGQPPKLLIYLASTLDSGVPARFSGSGSRTDFTLTIDPVEADDAATYYCQQNNEDPPTFGGGTKLEIK | no binding |  |  |  | 
12 | 3C2B1 mouse monoclonal antibody (antibody, V domains shown, raised against PSMGFR; also called MN-3C2B1; anti-PSMGFR antibody 3C2B1) VH: EVMLVESGGGLVKPGGSLKLSCAASGITFSTYTMSWVRQTPEKRLEWVATISTGGDKTYYSDSVKGRFTISRDNAKNNLYLQMSSLRSEDTALYYCARGTTAMYYYAMDYWGQGTSVTVSS VL: DIVLTQSPASLAVSLGQRATISCRASKSISTSDYNYIHWYQQKPGQPPKLLIYLASNLESGVPARFSGSGSGTDFTLNIHPVEEEDAATYYCQHSRELPLTFGAGTKLELK |  | binds | binds | no binding | 
13 | 29H1 mouse monoclonal antibody (antibody, V domains shown, raised against N+20/C-27; also called N+20/C-27 antibody 29H1) VH: EVKLEESGGGLVQPGGSMKLSCAASGFTFSDAWMDWVRQSPEKGLEWVAEIRSKATNHATYYAESVKGRFTISRDDSKSSVYLQMNSLRAEDTGIYYCTPLLYGFAYWGQGTLVTVSA VL: DVVMTQTPLSLPVSLGDQASISCRSGQSLVHSNGHTYLHWYLQKPGQSPRLLIYKVSNRFSGVPDRFSGSGSRADFTLKISRVEAEDLGVYFCSQTTHVPWTFGGGTKLEIK |  |  | no binding | binds | binding result [7]: binds; binding result [8]: binds
14 | 32C1 mouse monoclonal antibody (antibody, V domains shown, raised against N+20/C-27; also called N+20/C-27 antibody 32C1) VH: EVKLEESGGGLVQSGGSMKLSCVASGFTFSNYWMNWVRQSPEKGLEWVAEIRLKSNNYAIHYAESVKGRFTISRDDSKSSVYLQMNNLRAEDTGIYYCTRVPGLDAYWGQGTLVTVSA VL: DVVMTQTPLSLPVSLGDQASISCRSSQSLVHSNGNTYLHWYLQKPGQSPKLLIYKVSNRFSGVPDRFSGSGSGTDFTLKISSVEAEDLGVYFCSQITHVPYTFGGGTNLEIK |  |  | no binding | binds | binding result [7]: binds; binding result [8]: binds
